Experimental data from the Immune Epitope Database (IEDB).

Experiments:
HLA-B*44:03 = experiment: IEDB peptide-MHC binding, purified MHC/competitive/radioactivity; filed as Kd, often an IC50 or EC50 that approximates it; ≥ and ≤ were set here for values at or beyond the usual limits of such assays
HLA-A*32:01 = experiment: as above
HLA-B*15:01 = experiment: as above
HLA-A*03:01 = experiment: as above; conditions: source organism: Vaccinia virus WR
HLA-A*11:01 = experiment: as above; conditions: source organism: Vaccinia virus WR
HLA-A*31:01 = experiment: as above; conditions: source organism: Vaccinia virus WR
HLA-A*33:01 = experiment: as above; conditions: source organism: Vaccinia virus WR
HLA-A*68:01 = experiment: as above; conditions: source organism: Vaccinia virus WR
HLA-A*26:01 [1] = experiment: IEDB peptide-MHC binding, purified MHC/direct/fluorescence; filed as Kd, often an IC50 or EC50 that approximates it; ≥ and ≤ were set here for values at or beyond the usual limits of such assays
HLA-A*01:01 = experiment: IEDB peptide-MHC binding, purified MHC/competitive/radioactivity; filed as Kd, often an IC50 or EC50 that approximates it; ≥ and ≤ were set here for values at or beyond the usual limits of such assays
HLA-A*30:02 = experiment: as above
HLA-B*35:01 = experiment: as above
HLA-A*24:03 = experiment: IEDB peptide-MHC binding, purified MHC/direct/fluorescence; filed as Kd, often an IC50 or EC50 that approximates it; ≥ and ≤ were set here for values at or beyond the usual limits of such assays
HLA-A*26:01 [2] = experiment: IEDB peptide-MHC binding, purified MHC/competitive/radioactivity; filed as Kd, often an IC50 or EC50 that approximates it; ≥ and ≤ were set here for values at or beyond the usual limits of such assays
HLA-B*53:01 = experiment: as above; conditions: source organism: Dengue virus 1 Brazil/97-11/1997
HLA-A*02:02 = experiment: as above; conditions: source organism: Vaccinia virus WR
HLA-A*02:03 = experiment: as above; conditions: source organism: Vaccinia virus WR
HLA-A*02:06 = experiment: as above; conditions: source organism: Vaccinia virus WR
[3] = source organism: Dengue virus 3 Martinique/1243/1999
[4] = source organism: Dengue virus 1 Brazil/97-11/1997
[5] = source organism: Vaccinia virus Copenhagen
[6] = source organism: Dengue virus 4 Philippines/H241/1956
[7] = source organism: Vaccinia virus WR
[8] = source organism: Dengue virus 4 Dominica/814669/1981
[9] = source organism: Dengue virus 2 Jamaica/1409/1983
[10] = source organism: Dengue virus 2 16681-PDK53

Sequence: AEWLWRTLGR
- Kd (HLA-B*44:03; [3]): 0.314 µM

Sequence: AMEELPDTI
- Kd (HLA-A*32:01; [4]): ≥ 21400 nM

Sequence: ATAGLHLGF
- Kd (HLA-A*32:01; [5]): 1.69 nM

Sequence: AVHQVFGSVY
- Kd (HLA-B*15:01; [6]): 1.1 nM

Sequence: EEISTSLSF
- Kd (HLA-B*15:01; [7]): 2.05 nM

Sequence: EETNMITLLV
- Kd (HLA-B*44:03; [6]): 0.614 µM

Sequence: ELCGAFLFY
- Kd (HLA-A*03:01): 156 nM
- Kd (HLA-A*11:01): 196 nM
- Kd (HLA-A*31:01): 1030 nM
- Kd (HLA-A*33:01): 13.6 µM
- Kd (HLA-A*68:01): 277 nM
- Kd (HLA-B*15:01; [7]): 7.47 nM

Sequence: ELNNTQCHI
- Kd (HLA-B*15:01; [7]): 1240 nM

Sequence: ETIDTIIDQ
- Kd (HLA-A*26:01 [1]; source organism: Mammarenavirus lassaense): 954 nM

Sequence: FSFMYIESI
- Kd (HLA-B*15:01; [7]): 191 nM

Sequence: FSQHNYRQGY
- Kd (HLA-A*01:01; [6]): 210 nM
- Kd (HLA-A*30:02; [6]): 1250 nM
- Kd (HLA-B*15:01; [6]): 135 nM
- Kd (HLA-B*35:01; [6]): ≥ 45400 nM

Sequence: GGPISQHNY
- Kd (HLA-A*30:02; [4]): 473 nM

Sequence: GWALGYLYF
- Kd (HLA-A*24:03; source organism: Mycobacterium tuberculosis): 24.5 nM

Sequence: HTTERGGKAY
- Kd (HLA-A*01:01; [6]): 4310 nM
- Kd (HLA-A*26:01 [2]; [6]): 1320 nM
- Kd (HLA-B*15:01; [6]): 50.5 nM

Sequence: HTTERGGRAY
- Kd (HLA-A*01:01; [8]): 145 nM
- Kd (HLA-A*26:01 [2]; [8]): 345 nM
- Kd (HLA-B*15:01; [8]): 220 nM

Sequence: IISSTPFAEY
- Kd (HLA-A*01:01; [6]): 3440 nM
- Kd (HLA-A*30:02; [6]): 36.9 nM

Sequence: ILLKMVTHF
- Kd (HLA-B*15:01; [6]): 1.72 nM

Sequence: ILVIFTVAI
- Kd (HLA-A*32:01; [7]): 15.3 nM

Sequence: ITNELNYVL
- Kd (HLA-A*32:01; [6]): 74.6 nM

Sequence: ITYCLVTHM
- Kd (HLA-B*15:01; [7]): 25.3 nM

Sequence: KETACLGKAY
- Kd (HLA-B*44:03; source organism: Dengue virus 3 Singapore/8120/1995): 0.123 µM

Sequence: KIDNYVVKF
- Kd (HLA-A*32:01; [7]): 19.4 nM

Sequence: KTKLNDWDFV
- Kd (HLA-A*32:01; [3]): 18500 nM

Sequence: LAMNSVFTF
- Kd (HLA-A*32:01; [5]): 16.1 nM

Sequence: LAVSGVYPM
- Kd (HLA-B*15:01; [4]): 66.4 nM
- Kd (HLA-B*35:01; [4]): 16.7 nM
- Kd (HLA-B*53:01): 851 nM

Sequence: LENENILHG
- Kd (HLA-B*15:01; [5]): 309 nM

Sequence: LGKSEFQIY
- Kd (HLA-A*30:02; [9]): ≥ 76900 nM

Sequence: LGSSFCLHA
- Kd (HLA-B*15:01; [7]): ≥ 25500 nM

Sequence: LIITKVFSF
- Kd (HLA-A*32:01; [7]): 83.9 nM
- Kd (HLA-B*15:01; [7]): 7.68 nM

Sequence: LLFNSSFCI
- Kd (HLA-B*15:01; [7]): 104 nM

Sequence: LSPVRVPNY
- Kd (HLA-A*01:01; [9]): 5420 nM
- Kd (HLA-A*30:02; [9]): 50.2 nM

Sequence: LTIESVNAL
- Kd (HLA-A*32:01; [5]): 170 nM

Sequence: MEAEGVITQ
- Kd (HLA-B*44:03; [6]): 8.98 µM

Sequence: MLHCYESYM
- Kd (HLA-B*15:01; [7]): 97 nM

Sequence: MTDEQIYAF
- Kd (HLA-A*32:01; [7]): 17.7 nM

Sequence: NEMVLLQMED
- Kd (HLA-B*44:03; [9]): 6.08 µM

Sequence: NEMVLLTMKE
- Kd (HLA-B*44:03; [4]): 5.67 µM

Sequence: PNTNRAWNSL
- Kd (HLA-A*32:01; [9]): 1560 nM

Sequence: PVPGDWLYF
- Kd (HLA-A*26:01 [1]; source organism: Mycobacterium tuberculosis str. Haarlem): 1290 nM

Sequence: RFTPVKHEL
- Kd (HLA-A*24:03; source organism: Vibrio parahaemolyticus): 5 nM

Sequence: RSISRTENF
- Kd (HLA-B*15:01; [7]): 4.77 nM

Sequence: RSWPLNEGI
- Kd (HLA-A*32:01; [6]): 491 nM

Sequence: RYRGEDGCWY
- Kd (HLA-A*30:02; [9]): 198 nM

Sequence: STFSISSIF
- Kd (HLA-A*32:01; [5]): 1.05 nM

Sequence: SVMNFIPII
- Kd (HLA-A*02:02): 13.2 nM
- Kd (HLA-A*02:03): 6.26 nM
- Kd (HLA-A*02:06): 2.83 nM
- Kd (HLA-A*32:01; [7]): 0.604 nM

Sequence: TLKGMSYVM
- Kd (HLA-B*15:01; source organism: Dengue virus 1 Singapore/S275/1990): 17.6 nM

Sequence: TLWAIINTI
- Kd (HLA-A*32:01; [7]): 1.52 nM

Sequence: VVQPENLEY
- Kd (HLA-A*01:01; [10]): 381 nM
- Kd (HLA-A*30:02; [10]): 2040 nM

Sequence: WMINIMIHM
- Kd (HLA-B*15:01; [7]): 667 nM

Sequence: WNSGHEWVTD
- Kd (HLA-A*32:01; [9]): ≥ 61800 nM

Sequence: YISKVFEHV
- Kd (HLA-B*15:01; [7]): 94.2 nM
